Assays:
[1] = biological target: human IL-2 receptor (p55 Tac protein) on HUT-102 cells (human) (UniProt P01589); experiment: cell-based or functional assay
[2] = biological target: human IL-2 receptor (p55 Tac protein) on HUT-102 cells (human) (UniProt P01589); experiment: competition with radioiodinated mouse anti-Tac on HUT-102 cells
[3] = biological target: gH glycoprotein of cytomegalovirus on CMV-infected HEL cells (cytomegalovirus (CMV)) (UniProt P12824); experiment: immunostaining of CMV-infected HEL cells, 2-fold dilutions, HRP secondary

Sequence of human IL-2 receptor (p55 Tac protein) on HUT-102 cells (human) (P01589 22-272): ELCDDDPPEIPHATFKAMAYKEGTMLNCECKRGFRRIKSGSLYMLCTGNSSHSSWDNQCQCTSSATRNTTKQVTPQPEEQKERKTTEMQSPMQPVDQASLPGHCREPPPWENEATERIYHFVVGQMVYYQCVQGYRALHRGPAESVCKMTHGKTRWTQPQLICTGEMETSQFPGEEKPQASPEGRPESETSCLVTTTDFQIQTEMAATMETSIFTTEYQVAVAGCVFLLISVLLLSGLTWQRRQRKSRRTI

B1: mouse anti-Tac antibody (antibody, V domains shown)
VH: QVQLQQSGAELAKPGASVKMSCKASGYTFTSYRMHWVKQRPGQGLEWIGYINPSTGYTEYNQKFKDKATLTADKSSSTAYMQLSSLTFEDSAVYYCARGGGVFDYWGQGTTLTVSS
VL: QIVLTQSPAIMSASPGEKVTITCSASSSISYMHWFQQKPGTSPKLWIYTTSNLASGVPARFSGSGSGTSYSLTISRMEAEDAATYYCHQRSTYPLTFGSGTKLELK
For B1, the Percent 51Cr release after ADCC, effector:target ratio 30:1 [1] was 4% and the Percent 51Cr release after ADCC, effector:target ratio 100:1 [1] was under 1%.

B2: CDR-only humanized anti-Tac antibody (antibody, V domains shown)
VH: QVQLVQSGAEVKKPGSSVKVSCKASGGTFSSYRMHWVRQAPGQGLEWMGYINPSTGYTEYNQKFKDRVTITADESTNTAYMELSSLRSEDTAFYFCAGGGGVFDYEYNGGLVTVSS
VL: DIQMTQSPSTLSASVGDRVTITCSASSSISYMHWYQQKPGKAPKLLMYTTSNLASGVPSRFIGSGSGTEFTLTISSLQPDDFATYYCHQRSTYPLTFGQGTKVEVK
B2 gave a fold reduction of binding affinity compared to the PDL humanized anti-Tac antibody [2] of over 100 fold.

B3: mouse CMV5 antibody (antibody, V domains shown)
VH: EVQLQQSGPELVKPGASMKISCKASVYSFTGYTMNWVKQSHGQNLEWIGLINPYNGGTSYNQKFKGKATLTVDKSSNTAYMELLSLTSADSAVYYCTRRGFRDYSMDYWGQGTSVTVSS
VL: DIVLTQSPATLSVTPGDSVSLSCRASQSISNNLHWYQQKSHESPRLLIKYASQSISGIPSRFSGSGSGTDFTLSVNGVETEDFGMYFCQQSNSWPHTFGGGTKLEIK
B3 was tested, and the least amount of antibody that produced a detectable precipitate [3] was 63 ng/mL.
